Measurements reported in publication PMC11098434, “The effect of TG2-inhibitory monoclonal antibody zampilimab on tissue fibrosis in human in vitro and primate in vivo models of chronic kidney disease” (PLOS ONE, 2024).

Tests used:
zampilimab (human) [1] = experiment: SPR; BIAcore T200; test antibody captured (~100-200 RU) by goat anti-human IgG Fc F(ab')2 immobilised on a CM5 chip; TG2 titrated over it at 100 nM to 6.25 nM, 600 s association, up to 3200 s dissociation; 10 mM HEPES pH 7.4, 0.15 M NaCl, 0.005% Surfactant P20, 2 mM CaCl2 (+Ca2+); 1:1 fit
zampilimab (human) [2] = experiment: SPR; as the SPR with calcium (antibody captured by anti-human Fc, TG2 flowed over) but in the absence of calcium (-Ca2+); buffer of this condition not detailed
human transglutaminase 2 [3] = target: T1, human transglutaminase 2 (Homo sapiens, UniProt P21980)
human transglutaminase 2 [4] = target: T1, human transglutaminase 2; experiment: cell-based or functional assay
[5] = target: cynomolgus monkey transglutaminase 2 (cynomolgus monkey)
[6] = target: rabbit transglutaminase 2 (Oryctolagus cuniculus (rabbit), UniProt A0A5F9DRZ3); experiment: cell-based or functional assay
human transglutaminase 2 [7] = target: T1, human transglutaminase 2; experiment: cell-based or functional assay; remark: listed apart in the source
TG7 = target: T2, TG7 (Homo sapiens (assumed), UniProt Q96PF1); experiment: ELISA; ELISA of the humanized antibodies on TG2 and other TG family members; antibody up to 100 nM; format not described
T2 construct: transglutaminase family member TG7; also called transglutaminase 7

TG3 = target: T3, TG3 (Homo sapiens (assumed), UniProt Q08188); experiment: as above
T3 construct: transglutaminase family member TG3; also called transglutaminase 3

TG5 = target: T4, TG5 (Homo sapiens (assumed), UniProt O43548); experiment: as above
T4 construct: transglutaminase family member TG5; also called transglutaminase 5

[8] = target: T5, TG2 (as used in the ELISA of the humanized antibodies) (Homo sapiens (assumed), UniProt P21980); experiment: as above
T5 construct: transglutaminase 2 (TG2); also called transglutaminase 2

TG1 = target: T6, TG1 (Homo sapiens (assumed), UniProt P22735); experiment: as above
T6 construct: transglutaminase family member TG1; also called transglutaminase 1

human transglutaminase 2 [9] = target: T1, human transglutaminase 2; experiment: SPR; BIAcore T200; test antibody captured (~100-200 RU) by goat anti-human IgG Fc F(ab')2 immobilised on a CM5 chip; TG2 titrated over it at 100 nM to 6.25 nM, 600 s association, up to 3200 s dissociation; 10 mM HEPES pH 7.4, 0.15 M NaCl, 0.005% Surfactant P20, 2 mM CaCl2 (+Ca2+); 1:1 fit; conditions: both partners purified
human transglutaminase 2 [10] = target: T1, human transglutaminase 2; experiment: SPR; as the SPR with calcium (antibody captured by anti-human Fc, TG2 flowed over) but in the absence of calcium (-Ca2+); buffer of this condition not detailed; conditions: both partners purified
[11] = target: rabbit transglutaminase 2 (rabbit)

T1 sequence (P21980 whole entry): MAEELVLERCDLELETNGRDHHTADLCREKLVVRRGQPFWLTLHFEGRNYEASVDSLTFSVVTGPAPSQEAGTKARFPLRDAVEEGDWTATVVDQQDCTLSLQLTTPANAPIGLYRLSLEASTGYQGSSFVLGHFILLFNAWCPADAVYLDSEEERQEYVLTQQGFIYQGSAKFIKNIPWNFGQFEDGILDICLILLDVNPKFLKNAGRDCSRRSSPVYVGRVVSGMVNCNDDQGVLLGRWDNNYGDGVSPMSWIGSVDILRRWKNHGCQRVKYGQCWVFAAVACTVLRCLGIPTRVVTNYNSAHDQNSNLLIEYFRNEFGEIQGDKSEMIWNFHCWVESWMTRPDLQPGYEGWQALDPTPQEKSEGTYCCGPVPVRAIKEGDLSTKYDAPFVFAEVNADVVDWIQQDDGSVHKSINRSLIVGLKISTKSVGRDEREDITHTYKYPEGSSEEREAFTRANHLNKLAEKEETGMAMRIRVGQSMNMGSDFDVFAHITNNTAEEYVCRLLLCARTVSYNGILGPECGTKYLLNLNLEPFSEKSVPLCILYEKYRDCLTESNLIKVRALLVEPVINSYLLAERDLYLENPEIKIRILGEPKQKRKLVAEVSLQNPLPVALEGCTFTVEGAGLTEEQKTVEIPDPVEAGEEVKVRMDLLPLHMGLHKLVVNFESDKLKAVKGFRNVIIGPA
T2 sequence (Q96PF1 whole entry): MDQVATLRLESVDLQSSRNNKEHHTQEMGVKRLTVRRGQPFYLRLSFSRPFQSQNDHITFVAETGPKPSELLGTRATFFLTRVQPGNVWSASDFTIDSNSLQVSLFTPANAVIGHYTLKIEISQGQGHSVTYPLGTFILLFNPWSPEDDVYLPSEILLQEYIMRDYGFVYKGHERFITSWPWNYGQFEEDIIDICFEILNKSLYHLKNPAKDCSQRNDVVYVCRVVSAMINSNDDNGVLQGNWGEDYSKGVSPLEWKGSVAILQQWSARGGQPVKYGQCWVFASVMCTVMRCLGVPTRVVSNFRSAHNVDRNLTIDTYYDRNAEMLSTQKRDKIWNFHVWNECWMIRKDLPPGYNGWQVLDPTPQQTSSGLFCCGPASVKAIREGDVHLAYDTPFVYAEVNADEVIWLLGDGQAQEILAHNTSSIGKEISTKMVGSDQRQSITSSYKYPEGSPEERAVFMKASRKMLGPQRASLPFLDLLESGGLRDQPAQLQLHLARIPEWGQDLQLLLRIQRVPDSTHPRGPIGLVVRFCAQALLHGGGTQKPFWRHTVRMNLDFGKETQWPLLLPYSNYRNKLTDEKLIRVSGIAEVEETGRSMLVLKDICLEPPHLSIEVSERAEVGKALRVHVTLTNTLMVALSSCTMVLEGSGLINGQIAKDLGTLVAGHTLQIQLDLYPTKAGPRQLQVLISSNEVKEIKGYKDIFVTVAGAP
T5 sequence (P21980 whole entry): as the sequence (P21980 whole entry) above
T3 sequence (Q08188 whole entry): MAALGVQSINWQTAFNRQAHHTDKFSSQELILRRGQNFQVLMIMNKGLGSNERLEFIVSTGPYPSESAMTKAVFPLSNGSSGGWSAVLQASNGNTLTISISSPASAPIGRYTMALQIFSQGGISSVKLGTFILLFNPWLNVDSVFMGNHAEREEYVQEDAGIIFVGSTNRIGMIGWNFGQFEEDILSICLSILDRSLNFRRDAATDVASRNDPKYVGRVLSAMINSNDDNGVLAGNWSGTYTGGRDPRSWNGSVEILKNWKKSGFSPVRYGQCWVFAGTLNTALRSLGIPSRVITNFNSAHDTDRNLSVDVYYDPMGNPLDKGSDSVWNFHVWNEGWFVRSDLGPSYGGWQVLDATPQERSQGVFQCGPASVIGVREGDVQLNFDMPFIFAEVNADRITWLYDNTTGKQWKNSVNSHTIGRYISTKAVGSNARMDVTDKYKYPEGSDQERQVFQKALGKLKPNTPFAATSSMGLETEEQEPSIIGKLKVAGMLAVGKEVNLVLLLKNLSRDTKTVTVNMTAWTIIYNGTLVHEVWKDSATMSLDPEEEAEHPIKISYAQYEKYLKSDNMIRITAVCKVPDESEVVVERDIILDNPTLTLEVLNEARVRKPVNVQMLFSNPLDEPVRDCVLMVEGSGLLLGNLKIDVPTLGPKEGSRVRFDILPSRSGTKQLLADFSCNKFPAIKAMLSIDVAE
T4 sequence (O43548 whole entry): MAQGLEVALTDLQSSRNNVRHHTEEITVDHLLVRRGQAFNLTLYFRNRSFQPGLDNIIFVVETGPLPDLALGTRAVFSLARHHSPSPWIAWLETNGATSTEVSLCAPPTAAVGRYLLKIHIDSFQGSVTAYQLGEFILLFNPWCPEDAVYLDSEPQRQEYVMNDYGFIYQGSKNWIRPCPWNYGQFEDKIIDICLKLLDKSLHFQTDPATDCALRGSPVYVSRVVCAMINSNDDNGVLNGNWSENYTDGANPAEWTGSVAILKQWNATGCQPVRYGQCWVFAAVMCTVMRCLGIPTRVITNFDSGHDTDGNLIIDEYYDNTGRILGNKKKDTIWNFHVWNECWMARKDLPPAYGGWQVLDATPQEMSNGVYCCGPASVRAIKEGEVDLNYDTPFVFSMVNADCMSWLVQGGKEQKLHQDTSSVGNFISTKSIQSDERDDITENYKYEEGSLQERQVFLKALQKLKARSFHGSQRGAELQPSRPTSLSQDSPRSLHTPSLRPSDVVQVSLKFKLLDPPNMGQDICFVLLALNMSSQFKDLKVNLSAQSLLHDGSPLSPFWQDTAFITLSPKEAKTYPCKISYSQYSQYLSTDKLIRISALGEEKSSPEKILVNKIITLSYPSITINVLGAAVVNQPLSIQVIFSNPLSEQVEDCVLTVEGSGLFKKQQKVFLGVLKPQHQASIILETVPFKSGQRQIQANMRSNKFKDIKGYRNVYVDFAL
T6 sequence (P22735 whole entry): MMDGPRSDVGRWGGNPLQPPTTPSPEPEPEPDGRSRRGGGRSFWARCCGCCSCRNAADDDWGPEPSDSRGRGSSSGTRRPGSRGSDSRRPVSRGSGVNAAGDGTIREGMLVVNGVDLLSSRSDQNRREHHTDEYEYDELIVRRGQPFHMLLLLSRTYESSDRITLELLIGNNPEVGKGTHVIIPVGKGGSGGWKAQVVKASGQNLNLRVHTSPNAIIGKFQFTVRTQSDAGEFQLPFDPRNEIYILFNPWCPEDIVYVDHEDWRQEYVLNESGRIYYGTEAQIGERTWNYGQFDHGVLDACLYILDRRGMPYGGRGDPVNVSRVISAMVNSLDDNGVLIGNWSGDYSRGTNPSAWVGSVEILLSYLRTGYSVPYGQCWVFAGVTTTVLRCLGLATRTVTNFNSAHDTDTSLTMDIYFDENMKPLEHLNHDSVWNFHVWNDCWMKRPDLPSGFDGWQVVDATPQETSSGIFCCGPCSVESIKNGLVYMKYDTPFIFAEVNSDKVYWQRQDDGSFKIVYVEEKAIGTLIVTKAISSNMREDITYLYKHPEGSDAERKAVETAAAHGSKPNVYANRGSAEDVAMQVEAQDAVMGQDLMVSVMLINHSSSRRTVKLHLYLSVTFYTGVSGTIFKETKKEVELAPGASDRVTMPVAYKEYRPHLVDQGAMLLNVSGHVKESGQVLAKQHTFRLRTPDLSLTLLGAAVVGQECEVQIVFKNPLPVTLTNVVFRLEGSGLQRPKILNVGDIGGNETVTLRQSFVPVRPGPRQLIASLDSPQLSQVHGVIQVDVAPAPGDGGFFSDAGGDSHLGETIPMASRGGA

Row | binding result (human transglutaminase 2 [3]) | IC50 of inhibition of TG2 activity (KxD assay on recombinant protein by the text; biotin cadaverine incorporation by the table's footnote) [5] | IC50 of inhibition of TG2 activity (KxD assay on recombinant protein by the text; biotin cadaverine incorporation by the table's footnote) (human transglutaminase 2 [7]) | binding result (TG7) | binding result (TG3) | binding result (TG5) | EC50 [8] | binding result (TG1) | Kd (human transglutaminase 2 [9]) | Molecule | further results
1 |  |  |  |  |  |  |  |  |  | cynomolgus monkey transglutaminase 2 (enzyme) | Kd (zampilimab (human) [1]): < 0.037 nM; Kd (zampilimab (human) [2]): < 0.05 nM
2 | binds |  |  |  |  |  |  |  |  | mDC1 (antibody, V domains shown) VH: EVQLVESGGGLVKPGGSLKLSCAASGFTLSTHAMSWVRQTPEKRLEWVATISSGGRSTYYPDSVKGRFTISRDNVKNTLYLQLSSLRSEDTAVYFCARLISTYWGQGTTLTVSS VL: DITMTQSPSSIYASLGERVTITCKASQDINSYLTWFQQKPGKSPKILIYLVNRLVDGVPSRFSGSGSGQDYALTISSLEYEDMGIYYCLQYDDFPYTFGGGTKLEIK | 
3 |  | 0.22 nM | 0.25 nM | no binding (tested: 100 nM) | no binding (tested: 100 nM) | no binding (tested: 100 nM) | ~0.02 nM | no binding (tested: 100 nM) | < 0.05 nM | zampilimab (antibody, V domains shown, humanized DC1 VH; DC1 CDRs grafted on the human framework AF062260 with back mutation of the 5 Å Proximity residues; human heavy chain constant region; humanized DC1 VK; DC1 CDRs grafted on the human framework AF193851 with back mutation of the 5 Å Proximity residues; The discussion speaks of zampilimab as an IgG4P antibody in the monkey study; also called hDC1; UCB7858; source: Expi293 cells, …) VH: EVQLLESGGGLVQPGGSLRLSCAASGFTLSTHAMSWVRQAPGKGLEWVATISSGGRSTYYPDSVKGRFTISRDNSKNTLYLQMNSLRAEDTAVYFCARLISTYWGQGTLVTVSS VL: DITMTQSPSSLSASVGDRVTITCKASQDINSYLTWFQQKPGKAPKILIYLVNRLVDGVPSRFSGSGSGQDYALTISSLQPEDFATYYCLQYDDFPYTFGQGTKVEIK | IC50 of inhibition of extracellular TG activity (biotin cadaverine incorporation) in primary human RPTEC induced with TGF-β1, four independent studies (human transglutaminase 2 [4]): 119 nM; IC50 of inhibition of TG2 activity (KxD assay on recombinant protein by the text; biotin cadaverine incorporation by the table's footnote) [6]: 103 nM; Kd (human transglutaminase 2 [10]): < 0.107 nM
4 |  | 0.25 nM | 0.28 nM | no binding (tested: 100 nM) | no binding (tested: 100 nM) | no binding (tested: 100 nM) | ~0.02 nM | no binding (tested: 100 nM) | < 0.06 nM | hBB7 (antibody, V domains shown, humanized BB7 VH; BB7 CDRs grafted on the human framework AF062260 with back mutation of the 5 Å Proximity residues; human heavy chain constant region; humanized BB7 VK; BB7 CDRs grafted on the human framework AF193851 with back mutation of the 5 Å Proximity residues; also called humanized BB7; source: Expi293 cells, co-transfected heavy and kappa light chain vectors, purified from supernatant …) VH: EVQLLESGGGLVQPGGSLRLSCAASGIIFSSSAMSWVRQAPGKGLEWVATISSGGRSTYYPDSVKGRFTVSRDSSKNTLYLQMNSLRAEDTAVYYCAKLISPYWGQGTLVTVSS VL: DIKMTQSPSSLSASVGDRVTITCKASQDINSYLTWFQQKPGKAPKTLIYLTNRLMDGVPSRFSGSGSGQEFLLTISSLQPEDFATYYCLQYVDFPYTFGQGTKVEIK | IC50 of inhibition of TG2 activity (KxD assay on recombinant protein by the text; biotin cadaverine incorporation by the table's footnote) [11]: 6.59 nM
5 | binds |  |  |  |  |  |  |  |  | mBB7 (antibody, V domains shown) VH: AVQLVESGGGLVKPGGSLKLSCAASGIIFSSSAMSWVRQTPEKRLEWVATISSGGRSTYYPDSVKGRFTVSRDSAKNTLYLQMDSLRSEDTAIYYCAKLISPYWGQGTTLTVSS VL: AIKMTQSPSSMYASLGERVIITCKASQDINSYLTWFQQKPGKSPKTLIYLTNRLMDGVPSRFSGSGSGQEFLLTISGLEHEDMGIYYCLQYVDFPYTFGGGTKLEIK | 
